Reference: paper PMC7824956, “Structural and Biochemical Characterization of a Cold-Active PMGL3 Esterase with Unusual Oligomeric Structure” (Biomolecules, 2021)
“And” between values parts separate entries of the source, which are not always exact repeats. Equal entries are not always repeated. Each block holds one compound with its values, some of them ahead of it.

Tests used:
[1] = tested on: T1, CCCC(=O)Oc1ccc([N+](=O)[O-])cc1; test: esterase activity, Michaelis-Menten nonlinear regression; format: biochemical, permafrost metagenome; settings: 50 mM Tris-HCl pH 8.0, 100 mM NaCl, 30 °C, 0.2-2 mM substrate
T1 construct: recombinant in E. coli, pET32a (stated for mutants), C-terminal hexahistidine tag; 302 residues modelled plus last 10 C-terminal residues invisible; mainly dimer in solution, tetramer in crystal; catalytic motif 147GESAG151, E243, H273
Description: (§1) esterase activity, Michaelis-Menten nonlinear regression on PMGL3

[2] = molecular target: PMGL3 K67A mutant (not stated (Siberian permafrost metagenomic DNA library)); test: SEC; samples after incubation for 30 min and/or 1 h at 40 °C; Superdex 200 10/300 GL, 0.4 mL/min, 100 mM Tris-HCl pH 8.0, 150 mM NaCl
[3] = molecular target: PMGL3 K67A mutant (not stated (Siberian permafrost metagenomic DNA library)); test: SEC; freshly isolated samples; Superdex 200 10/300 GL, 0.4 mL/min, 100 mM Tris-HCl pH 8.0, 150 mM NaCl; column calibrated with protein standards
[4] = molecular target: cold-active esterase PMGL3, wild type (not stated (Siberian permafrost metagenomic DNA library)); test: SEC; sample after storage for 3 months at 4 °C; Superdex 200 10/300 GL, 0.4 mL/min, 100 mM Tris-HCl pH 8.0, 150 mM NaCl
[5] = molecular target: cold-active esterase PMGL3, wild type (not stated (Siberian permafrost metagenomic DNA library)); test: SEC; samples after incubation for 30 min and/or 1 h at 40 °C; Superdex 200 10/300 GL, 0.4 mL/min, 100 mM Tris-HCl pH 8.0, 150 mM NaCl
[6] = molecular target: cold-active esterase PMGL3, wild type (not stated (Siberian permafrost metagenomic DNA library)); test: SEC; freshly isolated samples; Superdex 200 10/300 GL, 0.4 mL/min, 100 mM Tris-HCl pH 8.0, 150 mM NaCl; column calibrated with protein standards
[7] = molecular target: cold-active esterase PMGL3, wild type (not stated (Siberian permafrost metagenomic DNA library)); test: as above; remark: listed apart in the source
[8] = molecular target: cold-active esterase PMGL3, wild type (not stated (Siberian permafrost metagenomic DNA library)); test: crystal structure; X-ray, space group C2, two subunits in the asymmetric unit; crystals from 0.1 M sodium citrate pH 5.6, 20% isopropanol, 20% PEG 4000; oligomers from crystal contact analysis (PDBePISA)
[9] = molecular target: cold-active esterase PMGL3, wild type (not stated (Siberian permafrost metagenomic DNA library)); test: as above; remark: listed apart in the source
PMGL3 = molecular target: T2, PMGL3 (unidentified, UniProt Z9N994FV33); test: esterase activity, Michaelis-Menten nonlinear regression; format: biochemical, permafrost metagenome; settings: 50 mM Tris-HCl pH 8.0, 100 mM NaCl, 30 °C; 0.2-2 mM substrate
T2 construct: recombinant in E. coli, pET32a (stated for mutants), C-terminal hexahistidine tag; 302 residues modelled plus last 10 C-terminal residues invisible; mainly dimer in solution, tetramer in crystal; catalytic motif 147GESAG151, E243, H273
T2 sequence (Z9N994FV33 1-304): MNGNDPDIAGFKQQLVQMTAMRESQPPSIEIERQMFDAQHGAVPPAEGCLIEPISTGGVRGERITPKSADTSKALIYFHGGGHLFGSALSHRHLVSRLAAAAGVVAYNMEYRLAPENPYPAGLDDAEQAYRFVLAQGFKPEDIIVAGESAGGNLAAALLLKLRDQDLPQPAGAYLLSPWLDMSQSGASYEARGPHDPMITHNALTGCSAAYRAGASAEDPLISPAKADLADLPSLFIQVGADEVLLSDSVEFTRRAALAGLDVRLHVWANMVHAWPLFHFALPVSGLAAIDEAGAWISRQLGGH
Description: as §1

[10] = molecular target: PMGL3 E47Q mutant (not stated (Siberian permafrost metagenomic DNA library)); test: SEC; samples after incubation for 30 min and/or 1 h at 40 °C; Superdex 200 10/300 GL, 0.4 mL/min, 100 mM Tris-HCl pH 8.0, 150 mM NaCl
[11] = molecular target: PMGL3 E47Q mutant (not stated (Siberian permafrost metagenomic DNA library)); test: SEC; freshly isolated samples; Superdex 200 10/300 GL, 0.4 mL/min, 100 mM Tris-HCl pH 8.0, 150 mM NaCl; column calibrated with protein standards
[12] = molecular target: PMGL3 D7N mutant (not stated (Siberian permafrost metagenomic DNA library)); test: SEC; samples after incubation for 30 min and/or 1 h at 40 °C; Superdex 200 10/300 GL, 0.4 mL/min, 100 mM Tris-HCl pH 8.0, 150 mM NaCl
[13] = molecular target: PMGL3 D7N mutant (not stated (Siberian permafrost metagenomic DNA library)); test: SEC; freshly isolated samples; Superdex 200 10/300 GL, 0.4 mL/min, 100 mM Tris-HCl pH 8.0, 150 mM NaCl; column calibrated with protein standards

Compound: PMGL3 (unidentified; D7N)
- Km [1]: 840 ± 70 µM
- Vmax [1]: 157 µmol/min/mg
- kcat [1]: 85 ± 3.15 s⁻¹

Compound: PMGL3 (unidentified; K67A)
- Km [1]: 940 ± 60 µM
- Vmax [1]: 102 µmol/min/mg
- kcat [1]: 55.5 ± 1.4 s⁻¹

- stoichiometry N [2]: 4
- stoichiometry N [3]: 2
Compound: PMGL3 K67A mutant (enzyme)

- stoichiometry N [4]: 4
- stoichiometry N [5]: 4
- stoichiometry N [6]: 2
- stoichiometry N [7]: 4
- stoichiometry N [8]: 2
- stoichiometry N [9]: 4
Compound: cold-active esterase PMGL3, wild type (enzyme)

Compound: PMGL3 (unidentified; E47Q)
- Km [1]: 1070 ± 90 µM
- Vmax [1]: 117 µmol/min/mg
- kcat [1]: 63.7 ± 2.07 s⁻¹

- Km (PMGL3): 980 ± 90 µM
Compound: CCCC(=O)Oc1ccc([N+](=O)[O-])cc1 [p-nitrophenyl butyrate]

- stoichiometry N [10]: 4
- stoichiometry N [11]: 4 and 2
Compound: PMGL3 E47Q mutant (enzyme)

- stoichiometry N [12]: 4
- stoichiometry N [13]: 2 and 4
Compound: PMGL3 D7N mutant (enzyme)
